Key:
[1] = target: T1, PTP-NP extracellular domain marked with an immunoglobulin tag (mouse, UniProt P80560 28-600); assay: in vitro binding of the two differently tagged extracellular domains (data not shown)
T1 construct: not shown: immunoglobulin tag
T1 chain: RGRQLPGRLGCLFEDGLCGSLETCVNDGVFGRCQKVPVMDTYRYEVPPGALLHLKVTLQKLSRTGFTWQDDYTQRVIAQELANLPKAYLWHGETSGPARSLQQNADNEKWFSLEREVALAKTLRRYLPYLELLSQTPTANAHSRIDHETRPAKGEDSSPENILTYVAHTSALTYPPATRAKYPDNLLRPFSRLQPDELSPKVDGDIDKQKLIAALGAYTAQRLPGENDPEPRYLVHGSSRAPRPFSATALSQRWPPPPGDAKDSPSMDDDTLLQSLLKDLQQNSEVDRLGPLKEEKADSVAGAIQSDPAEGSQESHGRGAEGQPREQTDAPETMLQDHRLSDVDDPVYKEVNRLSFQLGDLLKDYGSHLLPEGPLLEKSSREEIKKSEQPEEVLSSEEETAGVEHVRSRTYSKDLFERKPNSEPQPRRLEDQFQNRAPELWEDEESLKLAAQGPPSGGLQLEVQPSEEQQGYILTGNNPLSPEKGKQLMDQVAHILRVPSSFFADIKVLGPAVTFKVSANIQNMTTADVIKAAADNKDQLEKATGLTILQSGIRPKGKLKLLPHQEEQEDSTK

[2] = target: T2, PTP-NP (on cells transfected with PTP-NP) (mouse, UniProt P80560 28-1001); assay: NP-AP probe on cells transfected with PTP-NP (data not shown)
T2 construct: also called PTP-NP type 1; neural and pancreatic receptor protein tyrosine phosphatase
T2 chain: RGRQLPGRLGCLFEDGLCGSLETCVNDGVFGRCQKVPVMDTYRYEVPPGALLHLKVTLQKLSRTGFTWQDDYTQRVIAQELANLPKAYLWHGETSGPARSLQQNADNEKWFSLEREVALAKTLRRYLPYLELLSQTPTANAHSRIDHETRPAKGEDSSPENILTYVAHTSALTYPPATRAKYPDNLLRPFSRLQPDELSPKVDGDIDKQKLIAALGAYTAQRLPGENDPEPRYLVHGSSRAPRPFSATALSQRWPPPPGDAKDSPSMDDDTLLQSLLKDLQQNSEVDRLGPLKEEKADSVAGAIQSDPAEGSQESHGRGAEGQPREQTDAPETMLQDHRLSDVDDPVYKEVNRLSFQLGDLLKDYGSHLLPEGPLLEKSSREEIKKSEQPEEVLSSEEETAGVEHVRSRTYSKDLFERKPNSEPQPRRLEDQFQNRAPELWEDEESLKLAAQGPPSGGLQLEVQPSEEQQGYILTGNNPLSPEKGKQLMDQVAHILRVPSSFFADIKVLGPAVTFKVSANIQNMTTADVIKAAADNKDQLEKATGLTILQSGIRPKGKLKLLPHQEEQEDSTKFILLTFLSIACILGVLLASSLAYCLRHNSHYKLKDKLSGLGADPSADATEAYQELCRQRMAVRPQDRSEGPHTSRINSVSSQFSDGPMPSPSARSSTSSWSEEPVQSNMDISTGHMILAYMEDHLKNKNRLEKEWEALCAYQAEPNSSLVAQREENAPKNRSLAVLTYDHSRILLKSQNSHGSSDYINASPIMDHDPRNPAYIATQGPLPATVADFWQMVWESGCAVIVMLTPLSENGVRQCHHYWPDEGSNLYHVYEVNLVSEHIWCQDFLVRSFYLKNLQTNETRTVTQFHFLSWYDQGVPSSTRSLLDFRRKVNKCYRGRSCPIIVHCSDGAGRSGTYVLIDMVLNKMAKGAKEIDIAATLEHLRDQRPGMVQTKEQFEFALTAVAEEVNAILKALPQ

B1: NP-AP fusion protein (extracellular domain of PTP-NP fused to an alkaline phosphatase tag) (other)
chain: T1 chain
notes: Used as unpurified supernatant of transfected COS cells; also called NP-AP probe; not shown: limits and
- binding result [1]: no binding
- binding result [2]: no binding

Reference: patent publication US6399326 (Harvard, dated 2002)
